# Assay results as given in the supplement of paper PMC7125110.
# ± gives the standard error. For some of these results: Variants at the floor of the assay were thinned out.
# B1: glmS ribozyme (parent)
# chain: AUAAAAGCGCCAGAACUACAGAAAUGUAGUUGACGAGGAGGAGGUUUAUCGAAUUUUCGGCGGAUGCCUCCAAA
# Legend:
# Conditions in all cases: with glucosamine-6-phosphate
# [1] = variants of: B1; experiment: kcat; higher = faster cleavage; RNA array
# How it was run: (§1)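 kcat and KM were obtained from weighted Michaelis–Menten fits across concentrations of kobs values. Those came from one- or two-exponential decay fits to per-tile medians normalised to baseline and to non-cleaving reference variants. The variants were barcoded ribozymes transcribed in situ by E. coli RNA polymerase on sequenced MiSeq chips and tracked through a hybridised Cy3 probe at 37 °C, with 40 μM to 10 mM glucosamine-6-phosphate in HEPES/KCl/Mg(OAc)2 buffer flowed in.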
# [2] = variants of: B1; experiment: self-cleavage kobs at 40 uM GlcN6P; higher = faster cleavage; RNA array
# How it was run: as §1
# [3] = variants of: B1; experiment: self-cleavage kobs at 160 uM GlcN6P; higher = faster cleavage; RNA array
# How it was run: as §1
# [4] = variants of: B1; experiment: self-cleavage kobs at 2500 uM GlcN6P; higher = faster cleavage; RNA array
# How it was run: as §1
# [5] = variants of: B1; experiment: self-cleavage kobs at 10000 uM GlcN6P; higher = faster cleavage; RNA array
# How it was run: as §1
# [6] = variants of: B1; experiment: KM; higher = weaker cofactor use; RNA array
# How it was run: as §1
# [7] = variants of: B1; experiment: self-cleavage kobs at 640 uM GlcN6P; higher = faster cleavage; RNA array
# How it was run: as §1
Variant,kcat [1] [s⁻¹],self-cleavage kobs at 40 uM GlcN6P [2] [s⁻¹],self-cleavage kobs at 160 uM GlcN6P [3] [s⁻¹],self-cleavage kobs at 2500 uM GlcN6P [4] [s⁻¹],self-cleavage kobs at 10000 uM GlcN6P [5] [s⁻¹],KM [6] [µM],self-cleavage kobs at 640 uM GlcN6P [7] [s⁻¹]
C16U A36U,< 1e-05,–,–,–,–,–,–
A36U G66C,< 1e-05,< 1e-05,< 1e-05,–,–,–,–
U45C U49C G66U,< 1e-05,–,–,< 1e-05,< 1e-05,–,–
G32A C71G,0.000224 ± 3.5e-05,–,5.06e-05 ± 1.5e-05,0.00018 ± 2.8e-05,0.000195 ± 2.2e-05,1190 ± 450,6.85e-05 ± 1.1e-05
U54G U55A C70G,0.000128 ± 1.7e-05,6.4e-05 ± 1.6e-05,–,0.000157 ± 2.6e-05,0.000145 ± 2.6e-05,–,0.000102 ± 1.5e-05
G29C A39C,0.000582 ± 8.5e-05,–,6.14e-05 ± 2.9e-05,0.000212 ± 3e-05,0.000406 ± 4.2e-05,4360 ± 1100,7.25e-05 ± 1.1e-05
G13U U54G,0.00069 ± 0.00021,3.24e-05 ± 1.1e-05,9.27e-05 ± 1.6e-05,0.000363 ± 6.4e-05,0.000964 ± 0.00015,–,0.000263 ± 6e-05
U45A U56C,0.00585 ± 0.0022,7.22e-05 ± 1e-05,0.000234 ± 3.5e-05,0.00259 ± 0.00069,0.00411 ± 0.00072,3070 ± 1400,0.0014 ± 0.00014
A12C C50G G66C,0.000103 ± 2.8e-05,–,0.00011 ± 3.2e-05,0.000103 ± 2.6e-05,–,–,7.92e-05 ± 2.3e-05
G32C C58U,3.33e-05 ± 5.5e-06,–,–,–,–,–,–
G37U C68U,< 1e-05,–,–,–,–,–,–
G9A U45A,1.6e-05 ± 1.8e-06,–,< 1e-05,–,–,–,–
U31C G38U,< 1e-05,< 1e-05,–,–,< 1e-05,–,–
U46G G59U,< 1e-05,< 1e-05,–,–,–,–,< 1e-05
C11A G41A,< 1e-05,–,< 1e-05,–,–,2450 ± 650,< 1e-05
U47G U55C,0.00713 ± 0.0025,0.000233 ± 4.3e-05,0.00147 ± 0.00034,0.00386 ± 0.0012,0.00759 ± 0.0024,1030 ± 470,0.00372 ± 0.00087
G13U A53G,0.0022 ± 0.00047,2.14e-05 ± 9.7e-06,8.17e-05 ± 1e-05,0.000631 ± 9.5e-05,0.00168 ± 0.0002,4460 ± 1300,0.00029 ± 3.4e-05
C50A U54G,2.18e-05 ± 1.9e-06,–,–,–,–,–,–

Variant,kcat [1] [s⁻¹],self-cleavage kobs at 40 uM GlcN6P [2] [s⁻¹],self-cleavage kobs at 160 uM GlcN6P [3] [s⁻¹],self-cleavage kobs at 2500 uM GlcN6P [4] [s⁻¹],self-cleavage kobs at 10000 uM GlcN6P [5] [s⁻¹],KM [6] [µM],self-cleavage kobs at 640 uM GlcN6P [7] [s⁻¹]
G38C A48G,< 1e-05,–,–,–,–,–,< 1e-05
G37C A64G,9.23e-05 ± 9.1e-06,–,–,4.35e-05 ± 9.1e-06,7.49e-05 ± 8e-06,2450 ± 790,–
A15C C58A,0.000185 ± 2.6e-05,–,–,8.54e-05 ± 1.6e-05,0.00016 ± 2.1e-05,2130 ± 720,5.17e-05 ± 1.2e-05
A15U A52U,0.000143 ± 1.2e-05,< 1e-05,–,9.15e-05 ± 9.9e-06,0.000119 ± 1.5e-05,1610 ± 370,3.6e-05 ± 1e-05
A42G U47C,0.00858 ± 0.0022,6.46e-05 ± 2.1e-05,0.000257 ± 7.7e-05,0.00232 ± 0.00039,0.00583 ± 0.0016,6280 ± 2000,0.00074 ± 0.00014
C8A G29A C50G G66A C70G,7.47e-05 ± 2e-05,–,9e-05 ± 1.5e-05,7.56e-05 ± 1.6e-05,–,–,4.95e-05 ± 1.7e-05
G38U G40A,< 1e-05,–,–,–,–,–,–
A14C A48C,5.79e-05 ± 1.1e-05,–,–,4.95e-05 ± 1.2e-05,4.92e-05 ± 1.2e-05,–,–
A12C U69G,6.77e-05 ± 5.2e-06,–,5.5e-05 ± 1.2e-05,7.6e-05 ± 9.1e-06,5.86e-05 ± 7.7e-06,–,6.7e-05 ± 8.9e-06
C16U G41C,0.000304 ± 4.3e-05,–,2.95e-05 ± 1.4e-05,0.000244 ± 3.8e-05,0.000246 ± 4.5e-05,1030 ± 370,0.000139 ± 3.6e-05
C10U U56A,2.68e-05 ± 5.7e-06,< 1e-05,–,3.47e-05 ± 1.4e-05,–,–,–
U30C G32U,0.000492 ± 0.00011,–,–,0.000183 ± 2.9e-05,0.000403 ± 5.7e-05,3230 ± 1300,9.97e-05 ± 1.7e-05
U30C G66C,< 1e-05,–,–,< 1e-05,–,347 ± 120,< 1e-05
A14U G37U G63U,< 1e-05,< 1e-05,–,–,–,–,–
C11A U54G,0.000149 ± 2.7e-05,–,–,7.77e-05 ± 1.3e-05,0.000123 ± 1.4e-05,–,–
U65G G66U,0.00147 ± 0.00011,1.83e-05 ± 8e-06,9.38e-05 ± 2.2e-05,0.000789 ± 0.0001,0.00117 ± 0.00012,2310 ± 320,0.000342 ± 5.3e-05
C16A C71G,6.32e-05 ± 9.8e-06,–,3.88e-05 ± 1.5e-05,9.36e-05 ± 1.5e-05,5.48e-05 ± 6.9e-06,–,7.21e-05 ± 1.7e-05
